Measured values from patent US20240116985A1, “STAPLED PEPTIDES AND METHODS THEREOF” (priority 2020, published 2024).
Starred links: 1 amine or outer side, 2 acyl side, 3 side chain; linkers in the order of their positions; H or OH if unused. Positions of bridges follow the written chain, without caps; N, C: chain ends. Non-standard residues stand in square brackets, D forms with d. Primed or numbered codes have the meaning given here. No end group written: not given here. PyrS2″ = (S)-3-amino-1-((pent-4-en-1-yloxy)carbonyl)pyrrolidine-3-carboxylic acid (stapling residue), C=CCCCOC(=O)N1CC[C@@](N[*:1])(C(=O)[*:2])C1; B5(4) = 2,2-bis(4-pentenyl)glycine = 2-amino-2-(pent-4-en-1-yl)hept-6-enoic acid (stitching residue), C=CCCCC(CCCC=C)(N[*:1])C(=O)[*:2]; B5(8) = 2,2-bis(4-pentenyl)glycine (2-amino-2-(pent-4-en-1-yl)hept-6-enoic acid, stitching residue), C=CCCCC(CCCC=C)(N[*:1])C(=O)[*:2]; TfeGA = (S)-2-amino-3-((carboxymethyl)(2,2,2-trifluoroethyl)amino)propanoic acid, O=C([C@H](CN(CC(=O)[*:3])CC(F)(F)F)N[*:1])[*:2]; PyrS2 = (S)-3-amino-1-((pent-4-en-1-yloxy)carbonyl)pyrrolidine-3-carboxylic acid, C=CCCCOC(=O)N1CC[C@@](N[*:1])(C(=O)[*:2])C1; PyrS3 = (S)-3-amino-1-((hex-5-en-1-yloxy)carbonyl)pyrrolidine-3-carboxylic acid, C=CCCCCOC(=O)N1CC[C@@](N[*:1])(C(=O)[*:2])C1; Az2 = 3-amino-1-((pent-4-en-1-yloxy)carbonyl)azetidine-3-carboxylic acid, C=CCCCOC(=O)N1CC(N[*:1])(C(=O)[*:2])C1; Az3 = 3-amino-1-((hex-5-en-1-yloxy)carbonyl)azetidine-3-carboxylic acid, C=CCCCCOC(=O)N1CC(N[*:1])(C(=O)[*:2])C1; B5(7) = 2-amino-2-(pent-4-en-1-yl)hept-6-enoic acid, two olefinic side chains, C=CCCCC(CCCC=C)(N[*:1])C(=O)[*:2]; B5(13) = 2-amino-2-(pent-4-en-1-yl)hept-6-enoic acid (two alkene chains), C=CCCCC(CCCC=C)(N[*:1])C(=O)[*:2]; B5(3) = 2,2-bis(4-pentenyl)glycine (stitching residue), C=CCCCC(CCCC=C)(N[*:1])C(=O)[*:2]; B5 = 2-amino-2-(pent-4-en-1-yl)hept-6-enoic acid, C=CCCCC(CCCC=C)(N[*:1])C(=O)[*:2]; Phe(3-COOH) = N[C@@H](Cc1cccc(C(=O)O)c1)C(=O)O; Phe(4-COOH) = N[C@@H](Cc1ccc(C(=O)O)cc1)C(=O)O; Phe(2-Cl) = N[C@@H](Cc1ccccc1Cl)C(=O)O; 2Nal = N[C@@H](Cc1ccc2ccccc2c1)C(=O)O; Bta = N[C@@H](Cc1csc2ccccc12)C(=O)O; αAllylPro = C=CC[C@@]1(C(=O)O)CCCN1; tBuAla = CC(C)(C)C[C@H](N)C(=O)O; 3Thi = N[C@@H](Cc1ccsc1)C(=O)O; S8 = C=CCCCCCC[C@](C)(N)C(=O)O; Aib = CC(C)(N)C(=O)O

Assays:
[1] = target: full-length beta-Catenin (Uniprot ID P35222) (Homo sapiens (Human)) (UniProt P35222); test: fluorescence polarization competition; full-length beta-catenin, competitor 5FAM-TCF4(10-53) probe
[2] = target: full-length beta-Catenin (Uniprot ID P35222) (Homo sapiens (Human)) (UniProt P35222); test: fluorescence polarization competition; full-length beta-catenin with 5FAM-TCF4(10-53) probe as competitor
Target sequence in this assay (P35222 whole entry, the tested form may be a part, one chain of several): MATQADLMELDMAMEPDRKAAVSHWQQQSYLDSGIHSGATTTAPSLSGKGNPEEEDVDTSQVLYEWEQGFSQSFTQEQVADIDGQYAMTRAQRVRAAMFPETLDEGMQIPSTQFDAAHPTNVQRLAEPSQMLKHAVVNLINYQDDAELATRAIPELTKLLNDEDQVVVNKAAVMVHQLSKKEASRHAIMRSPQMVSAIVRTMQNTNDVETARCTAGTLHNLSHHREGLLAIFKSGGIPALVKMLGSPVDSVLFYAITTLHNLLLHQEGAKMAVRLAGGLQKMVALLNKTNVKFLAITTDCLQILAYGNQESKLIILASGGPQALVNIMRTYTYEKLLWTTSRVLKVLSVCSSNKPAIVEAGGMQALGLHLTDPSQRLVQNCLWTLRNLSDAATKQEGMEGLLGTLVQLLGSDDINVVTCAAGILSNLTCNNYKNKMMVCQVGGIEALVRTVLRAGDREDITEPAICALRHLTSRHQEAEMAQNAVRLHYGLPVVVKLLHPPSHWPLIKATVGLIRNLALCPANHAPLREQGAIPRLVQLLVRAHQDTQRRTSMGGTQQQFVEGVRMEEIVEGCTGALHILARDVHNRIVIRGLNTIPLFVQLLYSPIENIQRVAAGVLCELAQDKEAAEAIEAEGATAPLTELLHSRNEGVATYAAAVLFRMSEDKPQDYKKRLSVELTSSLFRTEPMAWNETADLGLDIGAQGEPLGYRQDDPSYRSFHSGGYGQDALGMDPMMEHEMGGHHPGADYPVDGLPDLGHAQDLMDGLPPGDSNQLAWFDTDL

Bcat-Halo [3] = target: Bcat-Halo (UniProt P35222); test: NanoBRET in HEK293 cells, Bcat-Halo/TCF4-Luc (competitor TCF4-Luc); absolute IC50
Chain of Bcat-Halo (P35222 whole entry): as the sequence (P35222 whole entry, the tested form may be a part, one chain of several) above

Bcat-Halo [4] = target: Bcat-Halo (UniProt P35222); test: NanoBRET in HEK293 cells, Bcat-Halo/TCF4-Luc (competitor TCF4-Luc); percent inhibition at 10 uM peptide
[5] = target: full-length beta-Catenin (Uniprot ID P35222) (Homo sapiens (Human)) (UniProt P35222); test: fluorescence polarization competition; peptide displaces 5FAM-TCF4(10-53) from full-length beta-catenin
Target sequence in this assay (P35222 2-781 limits assumed): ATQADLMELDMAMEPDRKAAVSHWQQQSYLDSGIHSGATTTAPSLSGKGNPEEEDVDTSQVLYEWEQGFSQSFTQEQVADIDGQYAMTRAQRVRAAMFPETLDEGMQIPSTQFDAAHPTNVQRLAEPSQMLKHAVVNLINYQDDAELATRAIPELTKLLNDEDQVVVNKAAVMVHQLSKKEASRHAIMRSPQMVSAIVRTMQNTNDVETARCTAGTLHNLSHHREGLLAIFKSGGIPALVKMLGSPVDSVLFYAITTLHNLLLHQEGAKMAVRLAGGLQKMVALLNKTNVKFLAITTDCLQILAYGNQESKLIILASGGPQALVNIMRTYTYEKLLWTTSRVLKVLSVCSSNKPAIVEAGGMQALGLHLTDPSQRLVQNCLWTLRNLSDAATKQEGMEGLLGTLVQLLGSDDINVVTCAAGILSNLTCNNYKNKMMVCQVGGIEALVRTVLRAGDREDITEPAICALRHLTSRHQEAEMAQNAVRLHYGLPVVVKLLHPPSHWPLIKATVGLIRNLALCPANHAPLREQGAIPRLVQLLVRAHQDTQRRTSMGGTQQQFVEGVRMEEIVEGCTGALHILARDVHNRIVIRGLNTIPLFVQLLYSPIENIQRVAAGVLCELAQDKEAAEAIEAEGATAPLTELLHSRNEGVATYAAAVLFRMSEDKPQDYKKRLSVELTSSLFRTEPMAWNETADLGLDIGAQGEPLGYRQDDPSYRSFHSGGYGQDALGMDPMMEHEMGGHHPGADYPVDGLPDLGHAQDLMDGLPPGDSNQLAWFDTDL

Bcat-Halo [6] = target: Bcat-Halo (UniProt P35222); test: NanoBRET in HEK293 cells, Bcat-Halo/TCF4-Luc (competitor TCF4-Luc); IC50
[7] = target: full-length beta-Catenin (Uniprot ID P35222) (Homo sapiens (Human)) (UniProt P35222); test: fluorescence polarization competition, peptide titrated against full-length beta-catenin + 5FAM-TCF4(10-53)
Target sequence in this assay (P35222 2-781 limits assumed): as above

[8] = target: full-length beta-Catenin (Uniprot ID P35222) (Homo sapiens (Human)) (UniProt P35222); test: fluorescence polarization competition; 5FAM-TCF4 10-53 probe on full-length beta-catenin
Target sequence in this assay (P35222 whole entry, the tested form may be a part, one chain of several): as the sequence (P35222 whole entry, the tested form may be a part, one chain of several) above

[9] = target: Bcat-Halo (beta-catenin HaloTag construct expressed in HEK293 cells) (UniProt P35222); test: NanoBRET in HEK293 cells, percent inhibition at 10 uM peptide; Bcat-Halo with TCF4-Luc as competitor
Chain of Bcat-Halo (beta-catenin HaloTag construct expressed in HEK293 cells) (P35222 whole entry, the tested form may be a part): as the sequence (P35222 whole entry, the tested form may be a part, one chain of several) above

[10] = target: full-length beta-Catenin (Uniprot ID P35222) (Homo sapiens (Human)) (UniProt P35222); test: fluorescence polarization competition; 10 nM full-length beta-catenin with 10 nM 5FAM-TCF4 (residues 10-53) probe as competitor
Target sequence in this assay (P35222 2-781 limits assumed): as the sequence (P35222 2-781 limits assumed) above

[11] = target: full-length beta-Catenin (Uniprot ID P35222) (Homo sapiens (Human)) (UniProt P35222); test: fluorescence polarization competition; displacement of 5FAM-TCF4(10-53) from full-length beta-catenin
Target sequence in this assay (P35222 whole entry, the tested form may be a part, one chain of several): as the sequence (P35222 whole entry, the tested form may be a part, one chain of several) above

[12] = target: full-length beta-Catenin (Uniprot ID P35222) (Homo sapiens (Human)) (UniProt P35222); test: fluorescence polarization competition; full-length beta-catenin, 5FAM-TCF4(10-53) probe
Target sequence in this assay (P35222 2-781 limits assumed): as the sequence (P35222 2-781 limits assumed) above

[13] = target: full-length beta-Catenin (Uniprot ID P35222) (Homo sapiens (Human)) (UniProt P35222); test: fluorescence polarization competition, full-length beta-catenin with 5FAM-TCF4(10-53) probe
Target sequence in this assay (P35222 2-781 limits assumed): as above

[14] = target: beta-catenin (full-length, Uniprot ID P35222) (Homo sapiens (Human)) (UniProt P35222); test: fluorescence polarization competition, displacement of 5FAM-TCF4 10-53 from full-length beta-catenin
Target sequence in this assay (P35222 2-781 limits assumed): as above

[15] = target: beta-catenin (full-length, Uniprot ID P35222) (Homo sapiens (Human)) (UniProt P35222); test: fluorescence polarization competition; full-length beta-catenin; competitor 5FAM-TCF4(10-53) probe
Target sequence in this assay (P35222 whole entry, one chain of several): as the sequence (P35222 whole entry, the tested form may be a part, one chain of several) above

[16] = target: full-length beta-Catenin (Uniprot ID P35222) (Homo sapiens (Human)) (UniProt P35222); test: FP competition vs 5FAM-TCF4(10-53) probe on full-length beta-catenin
Target sequence in this assay (P35222 whole entry, the tested form may be a part, one chain of several): as above

[17] = target: full-length beta-Catenin (Uniprot ID P35222) (Homo sapiens (Human)) (UniProt P35222); test: AlphaScreen competition vs biotin-TCF4(10-53) on full-length beta-catenin
Target sequence in this assay (P35222 whole entry, the tested form may be a part, one chain of several): as above

[18] = target: full-length beta-Catenin (Uniprot ID P35222) (Homo sapiens (Human)) (UniProt P35222); test: fluorescence polarization competition; peptide titrated against full-length beta-catenin + 5FAM-TCF4(10-53) probe
Target sequence in this assay (P35222 2-781 limits assumed): as the sequence (P35222 2-781 limits assumed) above

[19] = target: full-length beta-Catenin (Uniprot ID P35222) (Homo sapiens (Human)) (UniProt P35222); test: fluorescence polarization competition vs 5FAM-TCF4(10-53) on full-length beta-catenin
Target sequence in this assay (P35222 whole entry, the tested form may be a part, one chain of several): as the sequence (P35222 whole entry, the tested form may be a part, one chain of several) above

Bcat-Halo [20] = target: Bcat-Halo (UniProt P35222); test: NanoBRET Abs IC50 in HEK293 cells; Bcat-Halo, competitor TCF4-Luc
[21] = target: full-length beta-Catenin (Uniprot ID P35222) (Homo sapiens (Human)) (UniProt P35222); test: fluorescence polarization competition, full-length beta-catenin with 5FAM-TCF4(10-53) probe as competitor
Bcat-Halo [22] = target: Bcat-Halo (UniProt P35222); test: NanoBRET in HEK293 cells, Bcat-Halo / TCF4-Luc; peptide at 10 uM; competitor TCF4-Luc
[23] = target: full-length beta-Catenin (Uniprot ID P35222) (Homo sapiens (Human)) (UniProt P35222); test: fluorescence polarization competition; full-length beta-catenin; competitor displaced: 5FAM-TCF4 10-53
[24] = target: full-length beta-Catenin (Uniprot ID P35222) (Homo sapiens (Human)) (UniProt P35222); test: fluorescence polarization competition; full-length beta-catenin + 5FAM-TCF4(10-53) probe; peptide titrated
[25] = target: full-length beta-Catenin (Uniprot ID P35222) (Homo sapiens (Human)) (UniProt P35222); test: fluorescence polarization competition; 10 nM full-length beta-catenin with 10 nM 5FAM-labeled TCF4 residues 10-53 probe, peptide titrated
[26] = target: full-length beta-Catenin (Uniprot ID P35222) (Homo sapiens (Human)) (UniProt P35222); test: fluorescence polarization competition; 10 nM full-length beta-catenin with 10 nM 5FAM-TCF4(10-53) probe

Ac-[αAllylPro]D[tBuAla][B5(7)]D[TfeGA]AAFN[PyrS2][3Thi][Bta]H-NH2 (staple 1-4, 4-11; also: earlier-eluting staple isomer) [I-769]
EC50 [1]: 5 nM
IC50 [2]: 5 nM
IC50 (Bcat-Halo [3]): 13000 nM

Ac-[αAllylPro]D[tBuAla][B5(7)]D[TfeGA]AAFN[PyrS2][3Thi][Bta]H-NH2 (staple 1-4, 4-11; also: later-eluting staple isomer) [I-770]
EC50 [1]: 5 nM
IC50 [2]: 5 nM
IC50 (Bcat-Halo [3]): 13700 nM

Ac-[αAllylPro]D[tBuAla][B5(13)]DDAAFN[PyrS3][3Thi][Bta]H-NH2 (staple 1-4, 4-11) [I-775]
EC50 [1]: 7 nM
NanoBRET % inh @ 10 uM (Bcat-Halo [4]): 5.1%
IC50 [5]: 6 nM

Ac-[αAllylPro]D[tBuAla][B5(13)]DDAAFN[PyrS2]F[Bta]H-NH2 (staple 1-4, 4-11) [I-777]
EC50 [1]: 5 nM
IC50 (Bcat-Halo [6]): 14400 nM
NanoBRET % inh @ 10 uM (Bcat-Halo [4]): 24.5%
IC50 [5]: 5 nM

Ac-[αAllylPro]D[tBuAla][B5]DDAAFN[PyrS2″][3Thi][Bta][dT]-NH2 (staple 1-4, 4-11) [I-817]
EC50 [7]: 10 nM
IC50 [8]: 10 nM

Ac-[αAllylPro]D[tBuAla][B5(4)]DLAAFN[PyrS2][3Thi][Bta]Q-NH2 (staple 1-4, 4-11) [I-846]
NanoBRET % inh @ 10 uM [9]: 4.3%
EC50 [10]: 35 nM
IC50 [11]: 56 nM

Ac-[αAllylPro]D[tBuAla][B5(3)]D[TfeGA]AAFF[S8][Phe(2-Cl)][Bta]Q-NH2 (staple 1-4, 4-11) [I-931]
IC50 [12]: 221 nM
EC50 [13]: 221 nM

Ac-[αAllylPro]DA[B5(4)]D[TfeGA]AAFV[S8]F[Bta]Q-NH2 (staple 1-4, 4-11) [I-293: Ac-PL3-Asp-Ala-B5-Asp-TfeGA-Ala-Ala-Phe-Val-S8-Phe-BztA-Gln-NH2]
IC50 [14]: 140 nM

Ac-[αAllylPro]DA[B5(4)]D[2Nal]AAFQ[S8]F[Bta]Q-NH2 (staple 1-4, 4-11) [I-295]
IC50 [15]: 5000 nM
EC50 [16]: 5000 nM
EC50 [17]: 1180 nM

Ac-[αAllylPro]DA[B5(4)]DDAAFV[S8][Phe(4-COOH)][Bta]Q-NH2 (staple 1-4, 4-11; also: earlier-eluting staple isomer) [I-339]
EC50 [18]: 5000 nM
IC50 [19]: 5000 nM

Ac-[αAllylPro]DA[B5(4)]DDAAFV[S8][Phe(4-COOH)][Bta]Q-NH2 (staple 1-4, 4-11; also: later-eluting staple isomer) [I-340]
EC50 [18]: 5000 nM
IC50 [19]: 5000 nM

Ac-[αAllylPro]D[tBuAla][B5(4)]DEAAFN[S8]F[Bta]Q-NH2 (staple 1-4, 4-11) [I-677]
IC50 [1]: 22 nM
IC50 (Bcat-Halo [20]): 6700 nM
EC50 [21]: 22 nM

Ac-[αAllylPro]D[tBuAla][B5(8)]DDAAFN[PyrS2″][3Thi][Bta]H-NH2 (staple 1-4, 4-11) [I-694]
NanoBRET % inh @ 10 uM (Bcat-Halo [22]): 32.7%
IC50 [23]: 5 nM
EC50 [24]: 5 nM

Ac-[αAllylPro]DL[B5(8)]DDAAFN[PyrS2″][3Thi][Bta]H-NH2 (staple 1-4, 4-11) [I-696]
NanoBRET % inh @ 10 uM (Bcat-Halo [22]): 17%
IC50 [23]: 5 nM
EC50 [24]: 5 nM

B1: I-1984 (peptide)
peptide: PD[tBuAla][B5]D[Phe(3-COOH)]AAFL[PyrS2][Phe(2-Cl)][Bta]Q-NH2
modifications: staple 4-11; staple (positions not given here); not fully specified (residue 1, N-terminus, bridges); printed as ProAm5-Asp-Npg-B5-Asp-3COOHF-Ala-Ala-Phe-Leu-PyrS2-2C1F-BztA-Gln-NH2
IC50 [25]: 320 nM

B2: I-1985 (peptide)
peptide: PD[tBuAla][B5]D[Phe(3-COOH)]AAFL[PyrS2][Phe(2-Cl)][Bta]Q-NH2
modifications: staple 4-11; staple (positions not given here); not fully specified (residue 1, N-terminus, bridges); printed as ProAm6-Asp-Npg-B5-Asp-3COOHF-Ala-Ala-Phe-Leu-PyrS2-2C1F-BztA-Gln-NH2
IC50 [25]: 325 nM

B3: I-1986 (peptide)
peptide: PD[tBuAla][B5]D[TfeGA]AAFT[PyrS2][Phe(2-Cl)][Bta]Q-NH2
modifications: staple 4-11; staple (positions not given here); not fully specified (residue 1, N-terminus, bridges)
IC50 [25]: 502 nM

Ac-[αAllylPro]D[tBuAla][B5(3)]D[Phe(3-COOH)][Aib]AFL[Az2][3Thi][Bta]Q-NH2 (staple 1-4, 4-11) [I-2617]
IC50 [26]: 130 nM

B4: I-2618 (peptide)
peptide: Ac-[αAllylPro]D[tBuAla][B5(3)]D[Phe(3-COOH)][Aib]AFL[Az3][3Thi][Bta]Q-NH2
modifications: staple 1-4, 4-11; not fully specified; printed as Ac-PL3-Asp-Npg-B5-Asp-3COOHF-Aib-Ala-Phe-Leu-Az3-3Thi-BztA-Gln-NH2
IC50 [26]: 77 nM

B5: I-2619 (peptide)
peptide: Ac-[αAllylPro]D[tBuAla][B5(4)]D[Phe(3-COOH)][Aib]AFL[Az3][3Thi][Bta]Q-NH2
modifications: staple 1-4, 4-11; not fully specified; printed as Ac-PL3-Asp-Npg-B5-Asp-3COOHF-Aib-Ala-Phe-Leu-Az3-3Thi-BztA-Gln-NH2
IC50 [26]: 36 nM

Ac-[αAllylPro]DA[B5(4)]D[TfeGA]AAFV[S8]F[Bta]Q-NH2 (staple 1-4, 4-11) [I-293]
EC50 [16]: 140 nM
EC50 [17]: 41 nM
